Experiments:
[1] = target: FcγRIIIa, F allele at position 158, on NK cells homozygous for F (human) (UniProt P08637); experiment: cell-based or functional assay
[2] = target: FcγRIIIa, V allele at position 158, on NK cells homozygous for V (human) (UniProt P08637); experiment: cell-based or functional assay

Inhibition of ADCC (cetuximab-mediated ADCC of A431 cells by NK cells) [1] [%]	Inhibition of ADCC (trastuzumab-mediated ADCC of SKBR-3 cells by NK cells) [1] [%]	Inhibition of ADCC (cetuximab-mediated ADCC of A431 cells by NK cells) [2] [%]	Inhibition of ADCC (trastuzumab-mediated ADCC of SKBR-3 cells by NK cells) [2] [%]	Substance
76.5	94.5	79.4	97.4	aggregated IgG1 expressing GM 3+,1-,2- allotypes (antibody)
50.3	27.8	83.3	73.8	aggregated IgG1 expressing GM 17+,1+,2+ allotypes (antibody)
